Data set [1] can be described thus: mLeg1 protein in liver of mLeg1Δ/Δ mice after intragastric administration (immunoprecipitation). Type of data set: in vivo, mouse. Here is the method:
22.1 The column chromatography partially purified mLeg1 protein was intragastrically administered to the mLeg1^Δ/Δ mice at 50 ng of mLeg1 per gram of body weight of the mice.
22.2 The mice were sacrificed at different time points (0, 10, 20, 40, 60 min) after intragastric administration and liver samples were collected, an immunoprecipitation experiment was conducted to pull down mLeg1 protein (if there is any) and its interacting protein in the liver by using mLeg1 antibodies Reference may be made to steps 21.2-21.5.

A further data set deals with T1, EGFR (Homo sapiens, UniProt P00533).
T1 construct: endogenous in cells; host or cells: HepG2
Nature of the data set: Phospho-RTK array and EGFR phosphorylation specific antibody, HepG2 cells: EGFR. The format is cell-based. On the procedure:
19.1 The screening of receptor tyrosine kinase was performed by a RTK assay kit (Proteome Profiler Human Phospho-RTK Array Kit, R&D Cat. no. ARY001B) according to the manufacturer's instruction. The kit can detect 49 of 58 RTKs in total. The operation steps are summarized as follows: mLeg1 and a control were used to treat the cells (cells were grown in a 10 cm petri dish) separately, and then 500 μl of lysis buffer17 was used to lyse the cells; the RTK screening membrane was blocked for 1 hour using Assay buffer1 and then coated with a cell lysate for binding overnight, the resultant product was washed three times with 1× Wash Buffer, 10 minutes each time, then added with Anti-Phospho-Tyrosine-HRP Detection Antibody diluted with 1× Array Buffer2 at the ratio of 1:5000 for incubation at room temperature for 2 hours; followed by washing 3 times with 1× Wash Buffer, 10 minutes each time, then applied with Chemi Reagent Mix and developed, and finally imaged in a fluorescent chemiluminescent imager (Clinx Science Instruments Cat. No. 3400) with the signals recorded.
Further, the inventors of the present disclosure detected the impact of mLeg1 on intracellular EGFR activation level by an EGFR phosphorylation specific antibody.

Data set [2] deals with Akt phosphorylation of the HepG2 cells. Nature of the data set: Akt phosphorylation of HepG2 cells incubated with salivary gland cell culture supernatant (Western blot). Type of data set: cell-based, human. The note with it: wild type supernatant containing mLeg1. On the procedure:
14.1 Culture of human liver cancer cells HepG2: 10% newborn calf serum (GIBCO Cat. No. 16010-159) in DMEM high-glucose culture medium was used to culture the cell line. Cells were kept in a 37° C. incubator with 5% CO2, and saturated humidity. At the time of passage, the culture solution was thoroughly removed, and the left cells was digested with 0.25% typsin (EDTA-free, Sigma Cat. No. T4549), and an appropriate amount of cells were subjected to subculture or subsequent experiments.
14.2 The adherent HepG2 cells were incubated using the culture supernatant of the primary culture of the wild-type mouse salivary gland cells and the culture supernatant of the mLeg1^Δ/Δ mice, and the cell samples were collected 20 minutes later and 10 hours later.
14.3 The content of p-Akt was detected using an Akt phosphorylation antibody by Western blot, so as to reflect Akt phosphorylation level.

The test system is the same in data set [3]. In words: Akt phosphorylation of HepG2 cells incubated with mLeg1 protein partially purified from salivary glands (Western blot). The format is cell-based, human. Here is the method: 16.1.1 The salivary glands of two to three wild-type mice were harvested and rinsed in the pre-cooled PBS buffer, minced into fine pieces with scissors, and then transferred to a tissue homogenizer, added with 4 ml of lysate buffer (50 mM Tris-Hcl, pH 8.0, 150 mM NaCl, 0.5% NP40, 2× complete), fully homogenized on ice by pipetting through a 23G needle repeatedly, incubated for 30 minutes at 4° C. in a vertical shaker, and then centrifuged at 12000 g at 4° C. for 15 minutes to collect the supernatant.
16.1.2 The supernatant was passed through a sepharose 6B gel filtration column at a constant speed at 4° C., wherein the PBS buffer was used for elution, and different eluted components were separately collected by 4 ml per tube.
16.1.3 The content of mLeg1 in each tube was detected by Western blot. The tube with the highest mLeg1 content was taken as partially purified mLeg1, and the concentration of mLeg1 protein was estimated using the recombinantly-expressed mLeg1 protein in Escherichia coli as a reference, for subsequent experiments.
16.1.4 The partially purified mLeg1 protein was diluted to different concentrations (3.14×10^−2 ng/0.314 ng/μl and 3.14 ng/μl), and the different concentrations of mLeg1 protein were added to HepG2 culture medium respectively to culture HepG2, followed by incubation at 37° C. for 20 minutes, then total protein was extracted (as to the method of extraction, reference can be made to step 13.2), and Akt phosphorylation level at the different concentrations was detected by Western blot (referring to step 14.3, anti-p-Akt antibody (S473, Cell signaling #4060P) was selected as the corresponding antibody, and the dilution ratio was 1:1000).
16.2.1 mLeg1 protein-enriched components from wild-type mice and from mLeg1^Δ/Δ mice were extracted respectively. […]
16.2.3 The Akt phosphorylation level at different concentrations was detected by Western blot (reference can be made to step 13.2 for details, anti-p-Akt antibody (S473, Cell signaling #4060P) was selected as the corresponding antibody, and the dilution ratio in use was 1:1000).
In general terms: A western blot detects proteins with antibodies after separation by electrophoresis.

B1: mLeg1 protein: mouse secretory protein (SEQ ID NO: 2) encoded by mLeg1 gene, partially purified from salivary glands by column chromatography (protein, listed as Mus musculus)
chain: MAVLASWVWVLAGCFCAAVAEVSDSSDPYPPLWEDSPEQLSDYMMEDGNYIINPWVYTDRMGMYRILLEETAMYFAKYGPENEQNLLWGLPLQFGWQYQSGRLADPTGMTDCGNELNESLCVSVDSWWADINYYLSVIPFLAAVDSGITGISPNQITILPPPKDQMRFCYNVSDCQSAVPGTMNRWRDFFQYMQLNSSDFDGLLNYLWEAHASSLDYPTSAFGDRYNFYSEKEANFEENWAIAVNYLAAARLPTTQNRTYSFQRGLPPRVLVDTDIAPFIPDFTPLQNEVLVSLKLLGDTDRNSGSLSLTLWENLMSTKLARTLFLKAFEEFLATSS
modifications: partially purified
With B1, the “mLeg1 in the liver” value in data set [1] (40 minutes and 60 minutes after intragastric administration) is “decreased”. The “time at which the amount of mLeg1 protein in the liver reached the maximum value” in data set [1] (mLeg1Δ/Δ mice, 50 ng per gram of body weight, intragastric) is 20 min. Further, in the data set with EGFR (EGFR phosphorylation specific antibody), the “intracellular EGFR activation level” value was “could activate the EGFR very rapidly”. Also, the “tyrosine phosphorylation in EGFR” value in the data set with EGFR (HepG2, Phospho-RTK array) is “increases significantly”. In addition, in the data set with EGFR (in vitro experiments), the “time within which EGFR is activated” value is no more than 1 min and the “time within which the phosphorylation level of EGFR began to decrease” value is no more than 3 min. For the same molecule, in data set [2], the “time within which Akt phosphorylation is induced” value is no more than 20 min. In addition, the “induction of Akt phosphorylation” value in data set [3] (HepG2, 37° C. 20 minutes, 3.14×10^−2, 0.314 and 3.14 ng/μl) was “could induce Akt phosphorylation”. Further, in data set [3] (HepG2, 20 minutes), the “level of partially purified mLeg1 able to induce Akt phosphorylation of the HepG2 cells” value is on record as “nanogram levels”. In addition, the “ability to induce Akt phosphorylation” value in data set [3] (HepG2, 20 minutes, compared with corresponding components of mLeg1Δ/Δ salivary glands) was “significantly higher”.

(Values after patent publication US20180312557A1, “Leg1 Protein, Leg1 Gene, and Uses and Drugs thereof” (ZHEJIANG UNIVERSITY, priority 2016, published 2018).)
